The DeepSol protein solubility set

assay: soluble on expression in E. coli; label from the status in PepcDB or PDB records

For “MLPSTSKSVEVNENSEEPIELEENVIVVTGDEIQAEIAVVDGEEVIFADDDEYIEYDPLSIANDRNAVYDIYQPHESENGTFMCKICMRTGKNTEYEDRSTFVAHRYKCHGSFNNNVMCPLGDCREVFASLYTLRRHLSQQHELPIEIHLQSFVNIGEFEKFRHLVELASGCRFMMHTKQPKYRRQVMHCSKSEHKLVLQTQKHRLPRERMLKEGSACPSVISYRVESSSGEVHTFMQLYHIGHAPDTESQNSNADNARPMDIVFPIKPACWANHPMQYVQIDVHEMPTSIYGNKIYDNILIVTCLKTRFLWAKPLFECTRTAIGRILNSIFNEYGVPEGFSTSFSPTYIRDTIKSLESVYAVEIREVWNEPLPYNCLERWVLELAQNELGTRNRWVEQLQFLVMEYNQKPIPDRMETPFERMFNRKAPNLYHNGDNQEIIHDKYISYHSELRNEEEGVENRLNTSFEPGRKVFLRKGITKPRRGNNTQYYFGYIGEVDPSNPYYPFKVHYTSSDSPWPSERNIYAWVSVFDLLPTIHEISEMSMTSKKVSIAGLLCSCMGIESSQKYDLTAMGDIARESSRCLLFRNCLCTNQMSRFCCKLVGREHCRFHSVYPENDESYAKMDAALSSFIAYNKDSSKEAEKDLQDSTPIEQILNEVGRRRLESEITVEDPEDLAPPILEPMEPTERHLDTEEEEEEPNQIPMASEHIDIEGVDEEEIMEHSVNAISEEILFEYADDKRDDGPSTPKRGRRRKSPSESAGKKKKLSNNDEFVESTVSRRSSARRTIRPKNLDDYVE”, which “soluble on expression in E. coli” value is on record?
Its value is “not soluble”.

With “MILLPSIRLPETAMNTDSPINRVEQVQVDDLACWRIHTAHGEALIAQQGAQLLSYQPHEQPPLVWLSDEAGYRRGQSVRGGVPVCWPWFGPLERNPQEVRGQVEDGLKAPAHGLVRAVDWKIDDIAEEDGDLCVSFRLDAPDGLPGWPHPAALRMLFRFGERLTLRLTSENLGSKPLVLSQALHTYFAVSDSREIAIEGLEGARYIETLENWEERTQHGAVRVKGELDRIYLGLERDLLIKDPRWERSIHLHALDSRSAVVWNPWVDKSRRLSQFADDAWQQMLCIETGRVWDDLMVVAPGRSESFGVQIWSEPLKRP” as the sequence, how does the “soluble on expression in E. coli” value read?
The value was “soluble”.

Which “soluble on expression in E. coli” value does the source give for “MDVRELAIQQLKTVLDPELGINVVDLGLIYDLKIEDGHINVLMTLTTPGCPLHDSIAGGVKRALEQIDGVRDVRVQVTWNPPWTPERMSEEALRQLGHFS” here?
The value was “not soluble”.

With “MGSDKIHHHHHHMKIMSIELGKFNQLEVVKQVDFGMYLDGGEEGEILLPTRYVPEDCKLGDWLNVFLYLDNEERLIATTLTPLVQVGEFACLEVSWVNQFGAFLNWGLMKDLFVPFSEQKMKMQVGNKYVIHAHIDDESFRIVASAKVDRYLSKEKASYQPGEEVNILIWQKTDLGFKAIIENMYSGLLYDSEIFQTLHTGDVLKAYVKQVREDGKIDLILQKPGFEKIDDFSKTLHRYITEHGGWIGLTDKSPAEEIYDTFGVSKKTFKKAVGDLYKKRLILLHEDGIELVRP” as the sequence, how does the “soluble on expression in E. coli” value read?
Its value is “not soluble”.

For “MHTQRAGLSAIVATYRYQLATGVVYRDISSTIATEKIPFVENAVLKERAFIETIKQHQEPQRRIPRPVDSYVMLHSNARITTSRVIPQHKYKVTAKNPCRSIKRNAFQTAPSQTQLFISVNNRWLGLEHHHHHH”, which “soluble on expression in E. coli” value is on record?
The value was “not soluble”.

Which “soluble on expression in E. coli” value does the source give for “MLNLSGLSLSCEYQPFVCPHTKHIHGYEALARFYLGQGQAIAPNLVFEQLHENSNALAAVEFQAKTFQLKHAPARQSLFVNVDPHAANGVHTQKLLDLLSSHPQLTVEIIENTCISDAELANQLFHQFKTANLNVALDDIGAPHSMLSVDLMMNVDYLKFDRHWLNLVAEPHGIALLSALIEFGKRTGKQCILEGIETEAQLQLARELNVDLVQGFLFKPWFIRPEQSERLIC” here?
Its value is “soluble”.

Which “soluble on expression in E. coli” value does the source give for “MGHERDWSLVQVALTDITARKKAEAYLEYLGKHDVLTKLHNRAFYSDELNRLERSALRPVSAIVIDLNGLKEANDKLGHDAGDALLRRVGEVLNGVVTAPNHAARIGGDEFAILLPGADKQVAAAMVDTVYELLKINNQFYSSAPLSLSLGVATTEAGETMESLVRRADMNMYEQKNAYYAALRNRSADNNDTTKGLEHHHHHH” here?
Its value is “not soluble”.

Which “soluble on expression in E. coli” value does the source give for “MVFDPDFLNNNSEEHTNQLLNEHFGEHPNQLLKYLQHQSPEVLARVAQSVTPEIKQIISQNVQGLVGMLPAESFNVQITTDRDNLAGLLASAMMTGYFLRQMEQRMQLDHLSNQ” here?
The value was “not soluble”.

With “MAHHHHHHMSKSDLFNDAQVPMRATVLRFGDDVEGASYPEAALTIDDAAVPAEAKVEVYHDGDNSGSAHESVPHHAQDLRHDFTSGILNCHESCAVCLDACLCMYCTASAHHNFLMNDTEGLYLPVCWGLFCVDVGLSAVSSYLPSSLHFHTYFMRSAIRRRYNLHSAGAPVNSNTHGSSSSGCDCTTESMLDLLTVCFCLPCAIAQHQREIMHQGDWCGGVFSNRYSLQTPATVHTI” as the sequence, how does the “soluble on expression in E. coli” value read?
The value was “not soluble”.

Which “soluble on expression in E. coli” value does the source give for “LPTSNPAQELEARQLERTTRDDLINGNSASCADVIFIYARGSTEAGNLGTLGPSIASNLESAFGKDGVWIQGVGGAYRATLGDNALPRGTSSAAIREMLGLFQQANTKCPDATLIAGGYSQGAALAAASIEDLDSAIRDKIAGTVLFGYTKNLQNRGRIPNYPADRTKVFCNTGDLVCTGSLIVAAPHLAYGPDARGPAPEFLIEKVRAVRGSA” here?
The value was “soluble”.

For “MSRQPLSREDTAILVPALNEALRIREVVTDALTYCSHVIVIDDGSDDGTAECIAGMPVTLIRHPQRMGKGAALRSGFAQAQRLGMRAVMTMDGDGQHKAADFPRLLAAANRHPGCVIIGARMRKRATQPTIRRIGNDFGDWGIAWGCGFRLIDSQSGQRLYPASVFTLPNVPGEGFVFEAQLLISAARQAGARVVAVPIETRYAGTSPGTFRKSHFRLVRDLWNITSHVVKQVWAYGHVWREYRRVRANPVIVDDPDGEFATVPAVTKSNHSSLEHHHHHH”, which “soluble on expression in E. coli” value is on record?
Its value is “not soluble”.

For “MPKIVILPHQDLCPDGAVLEANSGETILDAALRNGIEIEHACEKSCACTTCHCIVREGFDSLPESSEQEDDMLDKAWGLEPESRLSCQARVTDEDLVVEIPRYTINHAREH”, which “soluble on expression in E. coli” value is on record?
Its value is “soluble”.

For “MSLSYPYYIVDAFAEEVFKGNPAAVYVLEKWLPEAVMQNIAIENNLSETAFTVKEGQSYALRWFTPEREIDLCGHATLATAFVLFNYYSVAEETLHFTSQSGPLAVTKKEEYYYLDFPYILPERIPILPEYEAALGTKIYEAYLGRDLFFVLKDEETVAKITPDFSALKALDLGVGVIVTASGDSVDFVSRTFFPKLRINEDPVCGSAHANLIPYWGKRLNQTTLSAYQVSPRGGFLTCEVKENRVIIGGTAKLFAKGEAYLPVEGGSHHHHHH”, which “soluble on expression in E. coli” value is on record?
Its value is “soluble”.

Which “soluble on expression in E. coli” value does the source give for “MGSDKIHHHHHHMMSGLVYRKRRRQNMTALERSWFEEAQQSMHGWDFSHLAGRWQTADLPWDYAALVREHLSADDRWLDIDTGGGELMGRFNPQPALTAVTEGWQPNIELLKQTVVKKGITLYPDAAEQLTAVPNSTFDIVTNSHGAMPVKRIAEVLKPGGRFVTQQVGATNNYALSRFFDEHYETAYPDNQLLTVMAQMQAAGFEILRAEQAYAALSFTDVGAIVYYATVIPWEFPHFDVARMLPKLHQLQSLLAINGRVTTFEDRFMIIARKLARRD” here?
Its value is “not soluble”.

For “MGSDKIHHHHHHMMQNNPFPYSNTEKRYHTLNYHLREHFGHKVFKVALDGGFDCPNRDGTVAHGGCTFCSAAGSGDFAGNRTDDLITQFHDIKNRMHEKWKDGKYIAYFQAFTNTHAPVEVLREKFESVLALDDVVGISIATRPDCLPDDVVDYLAELNERTYLWVELGLQTVHERTALLINRAHDFNCYVEGVNKLRKHGIRVCSHIINGLPLEDRDMMMETAKAVADLDVQGIKIHLLHLLKGTPMVKQYEKGKLEFLSQDDYVQLVCDQLEIIPPEMIVHRITGDGPIELMIGPMWSVNKWEVLGAINKELENRGSYQGKFFQRLEEESAL”, which “soluble on expression in E. coli” value is on record?
Its value is “not soluble”.

With “NDRFQWTSTLNGTYLKNRVERLSGGENDFINGSSPAAGMVDYATIIKPGEAIGTFWGYEWTGLDEKGHDTYTDVDGNQMIDGGDRKVIGKANPDFTLGWNNSLSYKNWDLNLFFNGSFGAKRLNLVRYTMASAEGNSRFVTLADAYLKGFDKIGSSATYPSLTEGGNNLQPVSTKWLENADFLRLENISLSYTFPKKTTGFADLRLTFSCQNLFTITGYKGMDPAGTTFSNSSVDVDAGIDMGAYPSPRTFTFGLRMNF” as the sequence, how does the “soluble on expression in E. coli” value read?
The value was “not soluble”.

With “MWDVIVVGGGPSGLSAALFLARAGLKVLVLDGGRSKVKGVSRVPNYPGLLDEPSGEELLRRLEAHARRYGAEVRPGVVKGVRDMGGVFEVETEEGVEKAERLLLCTHKDPTLPSLLGLTRRGAYIDTDEGGRTSYPRVYAAGVARGKVPGHAIISAGDGAYVAVHLVSDLRGEPYKDHAL” as the sequence, how does the “soluble on expression in E. coli” value read?
The value was “soluble”.

For “MPARRSAARIDFAGSPRPTLGVEWEFALVDSQTRDLSNEATAVIAEIGENPRVHKELLRNTVEIVSGICECTAEAMQDLRDTLGPARQIVRDRGMELFCAGTHPFARWSAQKLTDAPRYAELIKRTQWWGRQMLIWGVHVHVGIRSAHKVMPIMTSLLNYYPHLLALSASSPWWGGEDTGYASNRAMMFQQLPTAGLPFHFQRWAEFEGFVYDQKKTGIIDHMDEIRWDIRPSPHLGTLEVRICDGVSNLRELGALVALTHCLIVDLDRRLDAGETLPTMPPWHVQENKWRAARYGLDAVIILDADSNERLVTDDLADVLTRLEPVAKSLNCADELAAVSDIYRDGASYQRQLRVAQQHDGDLRAVVDALVAELVI”, which “soluble on expression in E. coli” value is on record?
The value was “soluble”.

For “MSLRERVKAHPKPADEQLLTRIRDHSISMLLNFLNSMFDGVDDSFFELANHAHTNNEQNRYFEAMREIRIKRKGIENHFQQELARLFNQPPSQHKTSESLSDNVDVDVLSLVQNDALEESVAINSMISKARANFSGSLLQFQTRVSSVYGETNEENAVNPLDPEHICKAFSDACIGLDIEIKEKLIVYKQFDRYVMGNLVECLEEANKIMIQAGVMPNLKYTAKKSRVTPRSTSDVSARPLEAQSDANGYDGAGDVFSQVQELLSALRNTASNPEQQQGDPNTGAGGRQAPPPGNVQFIADADLLSILSRLQHSVRTENLAEGPVVALDLRTAVQGLLSEESQKSGKATALDQIDEDLINLVSMLFEFILDDYNLSAPIQVLISRLQIPILKVAIRDKSFFSKPSHPARKLLNALAKAGIGWSDASEKKRDKLYEQIHRAVQRILEEFNGESELFEEIYQEFSQYLSREERKAKLVEQRTKEAEIGRVKSHKAHQVVEQILSEKIAAQPLPPVAVELLRGGWSRVMFLAYLKEDTEHRLNQCTKVVDELTWCLQPHAEVEARQRWVKVVPQLLKNLKAGLKEVSYNSAKLEHMLGELKKALTETFKQQSITSAQNDAPKPPAPVAAVIEQKLTPAIKTAVERQSEYEDAALAEYLTKIDEMECGAWIEFSLVNGTRFRCKLSTKIEDSDTYIFVNRLGLKVVEKTRGELAHELRKGRIKALEEGLLFDRAMNAVIGNLRKMSGEGHHHHHH”, which “soluble on expression in E. coli” value is on record?
The value was “soluble”.

For “STNNNPAPLLGFRIAHLLEQEPDTKDLTINVKTEILKHEFGPIKSSFSFSPHKFFEEDVKKQELYFFLIAVGIEEDDAKLMMTDMIFYVLGNIDELRGVLTLLLKVQFPSFEPIEEH”, which “soluble on expression in E. coli” value is on record?
Its value is “soluble”.

With “MSLDKNLQTVIHDEHCGTLDFSLGDSRYSGELESGESYTVNFSVNPPEGSSIKVARAYIYWTWSKQGLDGIYPEFKSSLVHSGSSVLLLEEKRYTDTKGFVSRYDFFSGTDVYDLSEDISEAGNYSISLVNAGGDEKTFCVQGAGLLLVYENPDLPQTEYWINEGCDVLYAEYGIDPDMATTTTFFEGDICPENIENARLITVSPSGGYSSGTEARNRLFFNEKTGSIPVIGDIIKLLFAGGKSWKNVYQTNETVQIALDERSVGNYLDSNGNFASIQDNGDYLMATNAILLLEFKEPENPGKRYGEGHHHHHH” as the sequence, how does the “soluble on expression in E. coli” value read?
The value was “not soluble”.

With “MGSDKIHHHHHHMSIARLREFVSDLTDIVGDDLHEAALLDRMRAPMTRLLAKDDWLPDAFAQPHPEFYQQYLLHCDPKQRFSVVSFVWGPGQKTPIHDHTVWGMIGMLRGSEHSTRFEVVGPDQPLRVAQTDVLEEGGIDVVSPSVGDVHQVSNVYDDRVSISIHVYGANIGRVRRHVYNGETGGVKEFVSGFSSSVVPNLWNAN” as the sequence, how does the “soluble on expression in E. coli” value read?
Its value is “not soluble”.
